Measured values as given in article doi:10.1101/2022.09.14.507982.

Biological target: F-actin (filamentous actin from rabbit muscle) (rabbit) (UniProt P68135)
Test: co-sedimentation

Kd: 3.42 µM
Substance: Ig3 domain of palladin (domain or fragment)
